Measured values from patent publication US20210046154A1.

Target: Siglec-10Fc (human) (UniProt Q96LC7)
Test: Biacore (SPR): control Fc compared with CD24Fc for binding of Siglec-10Fc; only the fitted value is printed under the KD line, no curve is drawn for the control

Sequence of UniProt Q96LC7 (Q96LC7 17-546): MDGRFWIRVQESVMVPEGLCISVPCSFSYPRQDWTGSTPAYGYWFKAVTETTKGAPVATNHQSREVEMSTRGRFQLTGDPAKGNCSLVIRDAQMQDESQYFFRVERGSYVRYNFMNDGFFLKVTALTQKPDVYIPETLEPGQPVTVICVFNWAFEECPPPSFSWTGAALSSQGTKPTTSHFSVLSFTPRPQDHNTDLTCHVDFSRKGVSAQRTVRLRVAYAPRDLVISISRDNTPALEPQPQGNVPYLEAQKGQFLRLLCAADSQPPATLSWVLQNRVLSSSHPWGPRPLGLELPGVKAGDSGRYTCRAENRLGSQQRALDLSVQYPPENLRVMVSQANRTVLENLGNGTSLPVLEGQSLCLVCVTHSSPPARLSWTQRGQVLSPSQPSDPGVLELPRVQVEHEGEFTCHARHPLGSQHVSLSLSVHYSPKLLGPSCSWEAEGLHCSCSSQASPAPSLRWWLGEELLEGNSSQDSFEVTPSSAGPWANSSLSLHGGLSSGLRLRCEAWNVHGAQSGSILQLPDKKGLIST

## control Fc
  Kd: 16.2 µM
